According to patent US11278600B2, “Human alpha-galactosidase variants” (Codexis, Inc., priority 2014, dated 2022):

Key:
Assay type in all cases: biochemical
[1] = HTP-analysis of yeast culture supernatants, no challenge (MUGal hydrolysis); conditions: activity of the variant/activity of WT GLA (SEQ ID NO: 5), yeast supernatant
Procedure, shortened: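 GLA variants were expressed in INVSc1 yeast grown in SD-Ura broth with glucose at 30° C., and culture supernatants were collected after 66-84 h. Supernatant was mixed with McIlvaine buffer pH 4.8 and MUGal (2 mM stock) in 50 mM citrate, 200 mM KCl, pH 4.6, incubated at 37° C. for 30-180 minutes, then quenched with sodium carbonate.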

[2] = HTP-analysis of supernatants pretreated with acid (MUGal hydrolysis); conditions: challenge at pH 4.2; activity of the variant/activity of WT GLA (SEQ ID NO: 5); yeast supernatant
Procedure, shortened: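 Yeast INVSc1 supernatant, GLA variants; acid challenge: McIlvaine pH 3.3-4.3, 37° C., 1-3 h. Assay: MUGal in McIlvaine pH 4.8 plus citrate pH 4.3, 37° C., 30-180 min, Na2CO3 stop, Ex 355/Em 448 nm.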

[3] = HTP-analysis of supernatants pretreated with base (MUGal hydrolysis); conditions: challenge at pH 7.1; activity of the variant/activity of WT GLA (SEQ ID NO: 5); yeast supernatant
Procedure, shortened: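 GLA variants secreted from yeast INVSc1; culture supernatants pre-incubated with McIlvaine buffer pH 7.0–8.2 or 200 mM bicarbonate pH 9.1–9.7 at 37° C. for 1–18 h. Residual activity: MUGal (4 mM stock) hydrolysis at pH 4.3–4.8, 37° C., 30–180 min, carbonate quench; fluorescence Ex 355/Em 448 nm.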

Row | Molecule | Relative Activity of GLA Variants After No Challenge (NC) [1] | Relative Activity of GLA Variants After Challenge at pH 4.2 [2] | Relative Activity of GLA Variants After Challenge at pH 7.1 [3]
1 | 39 (protein, Synthetic Polypeptide sequence of Variant No. 39 of mature Human GLA; VARIANT (170)..(170): Xaa = any amino acid or absent) LDNGLARTPTMGWLHWERFMCNLDCQEEPDSCISEKLFMEMAELMVSEGWKDAGYEYLCIDDCWMAPQRDSEGRLQADPQRFPHGIRQLANYVHSKGLKLGIYADVGNKTCAGFPGSFGYYDINAQTFADWGVDLLKFDGCYCDSLGNLADGYKHMSLALKQVGASSIVXCEWPLYSWPFQKPNYTEIRQYCNHWRNFADIDDSWKSIKSILDWTSENQERIVDVAGPGGWNDPDMLVIGNFGLSWNQQVTQMALWAIMAAPLFMSNDLRHISPQAKALLQDKDVIAINQDPLGKQGYQLRQGDNFEVWERPLSGLAWAVAMINRQEIGGPRSYTIAVASLGKGVACNPACFITQLLPVKRKLGFYEWTSRLRSHINPTGTVLLQLENTMQMSKDLLL | + (+ = 0.5 to 1.5 relative activity over WT GLA (SEQ ID NO: 5)) | ++ (++ = >1.5 to 2.5 relative activity over WT GLA (SEQ ID NO: 5)) | ++ (++ = >1.5 to 2.5 relative activity over WT GLA (SEQ ID NO: 5))
2 | 157 (protein, Synthetic Polypeptide sequence of Variant No. 157 of mature Human GLA) LDNGLARTPTMGWLHWERFMCNLDCQEEPDSCISEKLFMEMAELMVSEGWKDAGYEYLCIDDCWMAPQRDSEGRLQADPQRFPHGIRQLANYVHSKGLKLGIYADVGNKTCAGFPGSFGYYDIDAQTFADWGVDLLKFDGCYCDSLENLADGYKHMSLALNRTGRSIVYSCEWPLYMWPFQKPNYTEIRQYCNHWRNFADIDDSWKSIKSILDWTSFNQERIVDVAGPGGWNDPDMLVIGNFGLSWNQQVTQMALWAIMAAPLFMSNDLRHISPQAKALLQDKDVIAINQDPLGKQGYQLRQGDNFEVWERPLSGLAWAVAMINRQEIGGPRSYTIAVASLGKGVACNPACFITQLLPVKRKLGFYEWTSVLRSHINPTGTVLLQLENTMQMSKDLLL | ++ (++ = >1.5 to 2.5 relative activity over WT GLA (SEQ ID NO: 5)) | + (+ = 0.5 to 1.5 relative activity over WT GLA (SEQ ID NO: 5)) | ++ (++ = >1.5 to 2.5 relative activity over WT GLA (SEQ ID NO: 5))
3 | 163 (protein, Synthetic Polypeptide sequence of Variant No. 163 of mature Human GLA) LDNGLARTPTMGWLHWERFMCNLDCQEEPDDCISEKLFMEMAELMVSEGWKDAGYEYLCIDDCWMAPQRDSEGRLQADPQRFPHGIRQLANYVHSKGLKLGIYADVGNKTCAGFPGSFGYYDIDAQTFADWGVDLLKFDGCYCDSLENLADGYKHMSLALNRTGRSIVYSCEWPLYMWPFQKPNYTEIRQYCNHWRNFADIDDSWKSIKSILDWTSFNQERIVDVAGPGGWNDPDMLVIGNFGLSWNQQVTQMALWAIMAAPLFMSNDLRHISPQAKALLQDKDVIAINQDPLGKQGYQLRQGDNFEVWERPLSGLAWAVAMINRQEIGGPRSYTIAVASLGKGVACNPACFITQLLPVKRKLGFYEWTSRLRSHINPTGTVLLQLENTMQMSKDLLL | + (+ = 0.5 to 1.5 relative activity over WT GLA (SEQ ID NO: 5)) | + (+ = 0.5 to 1.5 relative activity over WT GLA (SEQ ID NO: 5)) | + (+ = 0.5 to 1.5 relative activity over WT GLA (SEQ ID NO: 5))
4 | 159 (protein, Synthetic Polypeptide sequence of Variant No. 159 of mature Human GLA) LDNGLARTPTMGWLHWERFMCNLDCQEEPDSCISEKLFMEMAELMVSEGWKDAGYEYLCIDDCWMAPQRDSEGRLQADPQRFPHGIPQLANYVHSKGLKLGIYADVGNKTCAGFPGSFGYYDIDAQTFADWGVDLLKFDGCYCDSLENLADGYKHMSLALNRTGRSIVYSCEWPLYMWPFQKPNYTEIRQYCNHWRNFADIDDSWKSIKSILDWTSFNQERIVDVAGPGGWNDPDMLVIGNFGLSWNQQVTQMALWAIMAAPLFMSNDLRHISPQAKALLQDKDVIAINQDPLGKQGYQLRQGDNFEVWERPLSGLAWAVAMINRQEIGGPRSYTIAVASLGKGVACNPACFITQLLPVKRKLGFYEWTSRLRSHINPTGTVLLQLENTMQMSKDLLR | + (+ = 0.5 to 1.5 relative activity over WT GLA (SEQ ID NO: 5)) | + (+ = 0.5 to 1.5 relative activity over WT GLA (SEQ ID NO: 5)) | + (+ = 0.5 to 1.5 relative activity over WT GLA (SEQ ID NO: 5))
5 | 161 (protein, Synthetic Polypeptide sequence of Variant No. 161 of mature Human GLA) LDNGLARTPTMGWLHWERFMCNLDCQEEPDSCISEKLFMEMAELMVSEGWKDAGYEYLCIDDCWMAPQRDSEGRLQADPQRFPHGIRQLANYVHSKGLKLGIYADVGNKTCAGFPGSFGYYDIDAQTFADWGVDLLKFDGCYCDSLENLADGYKHMSLALNRTGRHIVYSCEWPLYMWPFQKPNYTEIRQYCNHWRNFADIDDSWKSIKSILDWTSFNQERIVDVAGPGGWNDPDMLVIGNFGLSWNQQVTQMALWAIMAAPLFMSNDLRHISPQAKALLQDKDVIAINQDPLGKQGYQLRQGDNFEVWERPLSGLAWAVAMINRQEIGGPRSYTIAVASLGKGVACNPACFITQLLPVKRKLGFYEWTSRLRSHINPTGTVLLQLENTMQMSKDLLL | + (+ = 0.5 to 1.5 relative activity over WT GLA (SEQ ID NO: 5)) | + (+ = 0.5 to 1.5 relative activity over WT GLA (SEQ ID NO: 5)) | + (+ = 0.5 to 1.5 relative activity over WT GLA (SEQ ID NO: 5))
6 | 162 (protein, Synthetic Polypeptide sequence of Variant No. 162 of mature Human GLA) LDNGLARTPTMGWLHWERFMCNLDCQEEPDSCISEKLFMEMAELMVSEGWKDAGYEYLCIDDCWMAPQRDSEGRLQADPQRFPHGIRQLANYVHSKGLKLGIYADVGNKTCAGFPGSFGYYDIDAQTFADWGVDLLKFDGCYCDSLENLADGYKHMSLALNRTGRKIVYSCEWPLYMWPFQKPNYTEIRQYCNHWRNFADIDDSWKSIKSILDWTSFNQERIVDVAGPGGWNDPDMLVIGNFGLSWNQQVTQMALWAIMAAPLFMSNDLRHISPQAKALLQDKDVIAINQDPLGKQGYQLRQGDNFEVWERPLSGLAWAVAMINRQEIGGPRSYTIAVASLGKGVACNPACFITQLLPVKRKLGFYEWTSRLRSHINPTGTVLLQLENTMQMSKDLLL | + (+ = 0.5 to 1.5 relative activity over WT GLA (SEQ ID NO: 5)) | + (+ = 0.5 to 1.5 relative activity over WT GLA (SEQ ID NO: 5)) | + (+ = 0.5 to 1.5 relative activity over WT GLA (SEQ ID NO: 5))
7 | 160 (protein, Synthetic Polypeptide sequence of Variant No. 160 of mature Human GLA) LDNGLARTPTMGWLHWERFMCNLDCQEEPDSCISEKLFMEMAELMVSEGWKDAGYEYLCIDDCWMAPQRDSEGRLQADPQRFPHGIRQLANYVHSKGLKLGIYADVGNKTCAGFPGSFGYYDIDAQTFADWGVDLLKFDGCYCDSLENLADGYKHMSLALNRTGRAIVYSCEWPLYMWPFQKPNYTEIRQYCNHWRNFADIDDSWKSIKSILDWTSFNQERIVDVAGPGGWNDPDMLVIGNFGLSWNQQVTQMALWAIMAAPLFMSNDLRHISPQAKALLQDKDVIAINQDPLGKQGYQLRQGDNFEVWERPLSGLAWAVAMINRQEIGGPRSYTIAVASLGKGVACNPACFITQLLPVKRKLGFYEWTSRLRSHINPTGTVLLQLENTMQMSKDLLL | + (+ = 0.5 to 1.5 relative activity over WT GLA (SEQ ID NO: 5)) | ++ (++ = >1.5 to 2.5 relative activity over WT GLA (SEQ ID NO: 5)) | + (+ = 0.5 to 1.5 relative activity over WT GLA (SEQ ID NO: 5))
8 | 158 (protein, Synthetic Polypeptide sequence of Variant No. 158 of mature Human GLA) LDNGLARTPTMGWLHWERFMCNLDCQEEPDSCISEKLFMEMAELMVSEGWKDAGYEYLCIDDCWMAPQRDSEGRLQADPQRFPHGIKQLANYVHSKGLKLGIYADVGNKTCAGFPGSFGYYDIDAQTFADWGVDLLKFDGCYCDSLENLADGYKHMSLALNRTGRSIVYSCEWPLYMWPFQKPNYTEIRQYCNHWRNFADIDDSWKSIKSILDWTSFNQERIVDVAGPGGWNDPDMLVIGNFGLSWNQQVTQMALWAIMAAPLFMSNDLRHISPQAKALLQDKDVIAINQDPLGKQGYQLRQGDNFEVWERPLSGLAWAVAMINRQEIGGPRSYTIAVASLGKGVACNPACFITQLLPVKRKLGFYEWTSRLRSHINPTGTVLLQLENTMQMSKDLLL | ++ (++ = >1.5 to 2.5 relative activity over WT GLA (SEQ ID NO: 5)) | + (+ = 0.5 to 1.5 relative activity over WT GLA (SEQ ID NO: 5)) | ++ (++ = >1.5 to 2.5 relative activity over WT GLA (SEQ ID NO: 5))
